Test results reported in US20200399381A1 (I MAB BIOPHARMA US, published 2020).

What was measured:
human IFNAR-1 on cells = biological target: T1, human IFNAR-1 on cells (human, UniProt P17181 28-557); experiment: cell-based or functional assay
T1 sequence (looked up): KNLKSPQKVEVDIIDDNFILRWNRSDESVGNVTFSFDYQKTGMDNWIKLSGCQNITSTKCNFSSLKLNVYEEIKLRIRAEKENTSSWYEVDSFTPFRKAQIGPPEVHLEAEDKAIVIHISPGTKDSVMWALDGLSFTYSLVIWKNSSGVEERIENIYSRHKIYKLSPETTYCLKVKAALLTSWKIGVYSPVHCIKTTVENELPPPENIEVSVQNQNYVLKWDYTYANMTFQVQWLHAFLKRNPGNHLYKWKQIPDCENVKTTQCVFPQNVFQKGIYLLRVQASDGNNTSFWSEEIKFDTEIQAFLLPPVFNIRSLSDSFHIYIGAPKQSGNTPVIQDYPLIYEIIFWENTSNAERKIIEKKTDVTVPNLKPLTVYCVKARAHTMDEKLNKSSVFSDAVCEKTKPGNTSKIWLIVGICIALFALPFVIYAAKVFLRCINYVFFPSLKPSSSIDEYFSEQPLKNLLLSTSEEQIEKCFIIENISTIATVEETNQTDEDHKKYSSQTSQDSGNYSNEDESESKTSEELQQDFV

[1] = biological target: T2, human IFNAR-1 protein (form not stated) (human, UniProt P17181 28-436, limits assumed); experiment: ELISA on human IFNAR-1 protein
T2 construct: bispecific ELISA
T2 sequence (looked up): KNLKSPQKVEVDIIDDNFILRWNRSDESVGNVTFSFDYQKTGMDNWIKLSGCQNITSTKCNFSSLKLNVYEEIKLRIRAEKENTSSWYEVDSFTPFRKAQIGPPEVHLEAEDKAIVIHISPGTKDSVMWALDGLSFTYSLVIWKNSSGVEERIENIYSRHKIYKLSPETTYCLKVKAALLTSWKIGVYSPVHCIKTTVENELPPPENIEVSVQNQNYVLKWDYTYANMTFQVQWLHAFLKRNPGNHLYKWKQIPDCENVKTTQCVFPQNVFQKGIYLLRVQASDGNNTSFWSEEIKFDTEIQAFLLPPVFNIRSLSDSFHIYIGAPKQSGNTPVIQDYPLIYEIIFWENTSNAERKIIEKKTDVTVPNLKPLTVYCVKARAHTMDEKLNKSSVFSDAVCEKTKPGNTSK

[2] = biological target: T3, hIFNAR-1(1aa-409aa) K276A (human, UniProt P17181 28-436); experiment: flow cytometry on alanine scan clone, normalised to WT
T3 construct: range 1-409
T3 sequence (looked up): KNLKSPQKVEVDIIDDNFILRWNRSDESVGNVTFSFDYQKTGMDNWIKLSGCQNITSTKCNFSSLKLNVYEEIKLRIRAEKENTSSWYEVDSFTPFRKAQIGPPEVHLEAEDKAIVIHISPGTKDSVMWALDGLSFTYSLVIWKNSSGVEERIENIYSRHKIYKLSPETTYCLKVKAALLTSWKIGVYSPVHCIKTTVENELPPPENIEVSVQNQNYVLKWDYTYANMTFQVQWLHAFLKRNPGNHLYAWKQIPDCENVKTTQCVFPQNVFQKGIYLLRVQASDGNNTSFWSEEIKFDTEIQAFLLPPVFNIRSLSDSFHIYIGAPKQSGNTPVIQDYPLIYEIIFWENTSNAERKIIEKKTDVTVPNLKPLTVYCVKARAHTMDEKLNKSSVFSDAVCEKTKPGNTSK
Text: (§1) For each point, background fluorescence was subtracted from the raw data, which were then normalized to Fab reactivity with WT target protein. For each mutant clone, the mean binding value was plotted as a function of expression (represented by control reactivity).

[3] = biological target: T4, hIFNAR-1(1aa-409aa) K278A (human, UniProt P17181 28-436); experiment: as above
T4 construct: range 1-409
T4 sequence (looked up): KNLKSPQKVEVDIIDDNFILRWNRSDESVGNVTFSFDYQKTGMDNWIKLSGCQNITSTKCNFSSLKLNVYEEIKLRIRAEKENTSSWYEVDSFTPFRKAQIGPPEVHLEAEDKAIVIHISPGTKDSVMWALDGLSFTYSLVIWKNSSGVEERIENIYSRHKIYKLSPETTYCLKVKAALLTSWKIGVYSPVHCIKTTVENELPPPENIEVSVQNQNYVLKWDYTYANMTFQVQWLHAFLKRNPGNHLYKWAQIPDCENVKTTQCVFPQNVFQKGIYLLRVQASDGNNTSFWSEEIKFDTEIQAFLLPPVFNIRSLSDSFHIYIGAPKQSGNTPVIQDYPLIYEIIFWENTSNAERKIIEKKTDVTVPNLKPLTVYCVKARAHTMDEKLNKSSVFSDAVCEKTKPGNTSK
Text: as §1

[4] = biological target: T5, hIFNAR-1(1aa-409aa) H273A (human, UniProt P17181 28-436); experiment: as above
T5 construct: range 1-409
T5 sequence (looked up): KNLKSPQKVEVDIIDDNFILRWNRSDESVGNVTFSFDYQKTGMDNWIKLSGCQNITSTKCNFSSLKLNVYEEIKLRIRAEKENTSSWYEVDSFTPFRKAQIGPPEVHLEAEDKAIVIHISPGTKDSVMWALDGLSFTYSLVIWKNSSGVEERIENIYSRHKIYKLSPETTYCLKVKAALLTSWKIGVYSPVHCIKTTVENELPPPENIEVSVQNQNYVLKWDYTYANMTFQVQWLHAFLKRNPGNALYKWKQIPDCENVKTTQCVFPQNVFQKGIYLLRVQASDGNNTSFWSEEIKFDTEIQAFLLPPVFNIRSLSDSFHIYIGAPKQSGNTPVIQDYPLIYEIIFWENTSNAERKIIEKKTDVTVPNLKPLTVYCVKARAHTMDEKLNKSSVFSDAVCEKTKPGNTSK
Text: as §1

[5] = biological target: T6, hIFNAR-1(1aa-409aa) Y275A (human, UniProt P17181 28-436); experiment: as above
T6 construct: range 1-409
T6 sequence (looked up): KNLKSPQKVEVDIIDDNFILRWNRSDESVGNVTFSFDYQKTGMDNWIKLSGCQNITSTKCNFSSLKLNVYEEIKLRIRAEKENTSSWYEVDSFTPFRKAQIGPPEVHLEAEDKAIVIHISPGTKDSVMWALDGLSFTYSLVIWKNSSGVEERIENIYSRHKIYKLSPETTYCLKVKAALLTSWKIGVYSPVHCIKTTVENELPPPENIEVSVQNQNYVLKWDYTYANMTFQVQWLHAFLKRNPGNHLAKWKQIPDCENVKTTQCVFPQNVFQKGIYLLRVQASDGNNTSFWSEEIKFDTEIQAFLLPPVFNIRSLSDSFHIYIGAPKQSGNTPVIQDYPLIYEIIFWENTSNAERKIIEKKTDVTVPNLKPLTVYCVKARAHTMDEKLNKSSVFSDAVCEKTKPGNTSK
Text: as §1

[6] = biological target: T7, hIFNAR-1(1aa-409aa) L274A (human, UniProt P17181 28-436); experiment: as above
T7 construct: range 1-409
T7 sequence (looked up): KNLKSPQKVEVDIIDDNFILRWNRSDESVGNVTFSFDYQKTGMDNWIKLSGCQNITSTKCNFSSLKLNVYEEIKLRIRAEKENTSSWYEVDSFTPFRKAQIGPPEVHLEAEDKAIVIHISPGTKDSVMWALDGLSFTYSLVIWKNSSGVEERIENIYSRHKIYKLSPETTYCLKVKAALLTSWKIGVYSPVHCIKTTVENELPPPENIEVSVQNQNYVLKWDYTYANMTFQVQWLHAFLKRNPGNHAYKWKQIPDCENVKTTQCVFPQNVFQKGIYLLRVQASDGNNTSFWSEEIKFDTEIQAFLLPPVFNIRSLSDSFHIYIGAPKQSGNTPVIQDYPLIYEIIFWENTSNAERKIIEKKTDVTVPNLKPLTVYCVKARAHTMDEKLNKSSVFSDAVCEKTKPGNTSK
Text: as §1

B1: 8G11 chimeric antibody (antibody, V domains shown)
VH: EVQLQQSGAELVKPGASVKLSCTGFGFNIKDYYMHWVKQRAEQGLEWIGRIDPEDGETKYAPKFQGKATITADTSSNTAYLQVSSLTSEDTAVYYCARGGNFYVMDYWGQGTSVTVSS
VL: DIVMTQSQKFMSTSVGDRVSVTCKASQNVGTNVVWYQQKPGQSPKVLIYSASYRVSGVPDRFTGSGSGTDFTLIISNVQSEDLAEYFCQQKNNYPYTFGGGTKLEIK
notes: also called chimeric 8G11
EC50 (nM), IFNα2b-mediated anti-viral assay (Huh7-Con1b HCV replicon luciferase) (human IFNAR-1 on cells): 7.73 nM
EC50 (read off the curve) [1]: ~0.1 nM

B2: 8G11 Fab (Fab, V domains shown)
VH: EVQLQQSGAELVKPGASVKLSCTGFGFNIKDYYMHWVKQRAEQGLEWIGRIDPEDGETKYAPKFQGKATITADTSSNTAYLQVSSLTSEDTAVYYCARGGNFYVMDYWGQGTSVTVSS
VL: DIVMTQSQKFMSTSVGDRVSVTCKASQNVGTNVVWYQQKPGQSPKVLIYSASYRVSGVPDRFTGSGSGTDFTLIISNVQSEDLAEYFCQQKNNYPYTFGGGTKLEIK
Binding Reactivity (% WT) [2]: 1.5 % WT
Binding Reactivity (% WT) [3]: 3.9 % WT
Binding Reactivity (% WT) [4]: 31.2 % WT
Binding Reactivity (% WT) [5]: 19.1 % WT
Binding Reactivity (% WT) [6]: 22.7 % WT

B3: Anifrolumab (antibody, V domains shown)
VH: EVQLVQSGAEVKKPGESLKISCKGSGYIFTNYWIAWVRQMPGKGLESMGIIYPGDSDIRYSPSFQGQVTISADKSITTAYLQWSSLKASDTAMYYCARHDIEGFDYWGRGTLVTVSS
VL: EIVLTQSPGTLSLSPGERATLSCRASQSVSSSFFAWYQQKPGQAPRLLIYGASSRATGIPDRLSGSGSGTDFTLTITRLEPEDFAVYYCQQYDSSAITFGQGTRLEIKR
Binding Reactivity (% WT) [2]: 99.4 % WT
Binding Reactivity (% WT) [3]: 105 % WT
Binding Reactivity (% WT) [4]: 88.1 % WT
Binding Reactivity (% WT) [5]: 146 % WT
Binding Reactivity (% WT) [6]: 106 % WT
